This is an account of results in patent US20190177376A1.

The target of this assay is human IgG (human). Briefly: ELISA, IgG coated on plate, detection with Strep-Tactin-HRP.

In turn, domain B (from UniProt P38507 212-269) showed a dissociation constant Kd of 3.1 nM.
